{"source": "patent US8241627B2", "about": "“Modified polypeptides stabilized in a desired conformation and methods for producing same” (The Center for Blood Research, Inc., priority 2000, dated 2012)", "type_in_all_cases": "cell-based", "key": {"ICAM-1": {"target": "T1, ICAM-1 (Homo sapiens, UniProt P05362)", "T1 construct": "ICAM-1 was purified from human tonsil; from tissue; host or cells: human tonsil", "T1 sequence (P05362 28-532)": "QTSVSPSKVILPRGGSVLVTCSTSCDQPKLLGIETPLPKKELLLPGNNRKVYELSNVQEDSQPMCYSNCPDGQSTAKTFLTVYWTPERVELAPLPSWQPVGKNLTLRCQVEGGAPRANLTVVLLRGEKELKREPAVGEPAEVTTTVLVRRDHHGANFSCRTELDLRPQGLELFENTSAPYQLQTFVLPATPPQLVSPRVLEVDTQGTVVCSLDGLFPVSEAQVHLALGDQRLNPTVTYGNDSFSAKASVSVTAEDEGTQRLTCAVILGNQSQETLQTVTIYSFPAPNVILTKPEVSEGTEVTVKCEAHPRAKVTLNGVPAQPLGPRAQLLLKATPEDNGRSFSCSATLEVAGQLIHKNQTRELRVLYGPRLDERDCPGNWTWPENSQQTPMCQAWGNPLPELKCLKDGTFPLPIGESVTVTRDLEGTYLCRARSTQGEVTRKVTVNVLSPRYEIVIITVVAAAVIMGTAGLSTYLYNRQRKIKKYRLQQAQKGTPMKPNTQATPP", "assay": "Binding of LFA-1 or isolated I-domain transfectants to immobilized ICAM-1", "settings": "for binding of 293T transient transfectants to immobilized ICAM-1: no activating antibody", "protocol": "Clones of the transfectants that expressed similar levels of cell surface LFA-1, as determined by flow cytometry using monoclonal antibody TS2/4 (FIG. 3B), were tested for their ability to bind to immobilized ICAM-1, as previously described (Lu, C and Springer, T A (1997) J Immunol 159:268-278).\n(§1) Briefly, ICAM-1 was purified from human tonsil, and coated to 96-well plates as described previously (Lu, C and Springer T A, (1997) J Immunol 159:268-278). Cells were labeled with a florescence dye 2′,7′-bis-(carboxyethyl)-5(and-6)-carboxyfluorescein, acetoxymethyl ester (BCECF-AM), and resuspended to 1×10^6/ml in L15/FBS. 50 μl cell suspension was mixed in ICAM-1 coated wells with an equal volume of L15/FBS in the absence or presence of monoclonal antibody (CBRLFA-1/2, 10 μg/ml). Monoclonal antibodies were used at final concentration of 1:20 hybridoma supernatant, 1:200 ascites, or μg/ml purified IgG. For testing the effect of divalent cations, BCECF-AM-labeled cells were washed 2× with TS buffer, pH7.5 (20 mM Tris, pH 7.5, 150 mMNaCl) containing 5 mM EDTA, followed by 2 washes with TS buffer, pH7.5. Cells were then resuspended to 5×10^5/ml in the TS buffer, pH7.5 supplemented with 1 mM MgCl2/CaCl2, MgCl2, MnCl2 mM EDTA, and 100 μl cell suspension was added to ICAM-1 coated wells. After incubation at 37° C. for 30 minutes, unbound cells were washed off on a Microplate Autowasher (Bio-Tek Instruments, Winooski, Vt.). The fluorescence content of total input cells and the bound cells in each well was quantitated on a Fluorescent Concentration Analyzer (IDEXX, Westbrook, Me.). The bound cells were expressed as a percentage of total input cells per sample well.\nFor generating stable K562 transfectants that express the I-domain on the surface, 20 μg of SspI-linearized pcDNA3.1/Hygro(+) containing the sequences encoding the I domain and the PDGFR transmembrane domain was used to transfect K562 cells by electroporation as described above. Transfectants were selected for resistance to 100 μg/ml hygromycin B, and were further subcloned by cell sorting and limiting dilution; clones that expressed similar levels of surface wild-type and mutant I domain-PDGFR were selected for functional studies. Stable cell lines were maintained in RPMI medium 1640 supplemented with 10% FBS and 100 μg/ml hygromycin B. Cell surface expression of the isolated I-domains was determined by flow cytometry using antibody TS1/22 to the I-domain (FIG. 7). Two clones from each transfectant were selected and tested for binding to immobilized ICAM-1, and similar results were obtained with each of the two clones (FIG. 8A).\nIf the constitutive ligand binding activity of mutant K287C/K294C is due to the formation of a disulfide bond between the introduced C287 and C294, disruption of the disulfide bond with a reducing agent would abolish ligand binding ability of the mutant. Accordingly, the transfectants were treated with the reducing agent DTT (10 mM) in L15/FBS containing Mg^2+ and Ca^2+, and the ability of transfectants to bind to ICAM-1 was assessed.\nFurthermore, the effect of divalent cations on ligand binding of the isolated I-domains expressed on the surface of K562 transfectants was tested. The binding reactions were performed in HEPES/NaCl/glucose (20 mM HEPES, pH 7.5, 140 mM NaCl, 2 mg/ml glucose) supplemented with 1 mM […], 1 mM Mg^2+, or 1 mM EDTA."}, "iC3b": {"target": "T2, iC3b (Homo sapiens, UniProt P01024)", "T2 construct": "mutant to iC3b coated on plastic", "T2 sequence (P01024 23-667 limits assumed)": "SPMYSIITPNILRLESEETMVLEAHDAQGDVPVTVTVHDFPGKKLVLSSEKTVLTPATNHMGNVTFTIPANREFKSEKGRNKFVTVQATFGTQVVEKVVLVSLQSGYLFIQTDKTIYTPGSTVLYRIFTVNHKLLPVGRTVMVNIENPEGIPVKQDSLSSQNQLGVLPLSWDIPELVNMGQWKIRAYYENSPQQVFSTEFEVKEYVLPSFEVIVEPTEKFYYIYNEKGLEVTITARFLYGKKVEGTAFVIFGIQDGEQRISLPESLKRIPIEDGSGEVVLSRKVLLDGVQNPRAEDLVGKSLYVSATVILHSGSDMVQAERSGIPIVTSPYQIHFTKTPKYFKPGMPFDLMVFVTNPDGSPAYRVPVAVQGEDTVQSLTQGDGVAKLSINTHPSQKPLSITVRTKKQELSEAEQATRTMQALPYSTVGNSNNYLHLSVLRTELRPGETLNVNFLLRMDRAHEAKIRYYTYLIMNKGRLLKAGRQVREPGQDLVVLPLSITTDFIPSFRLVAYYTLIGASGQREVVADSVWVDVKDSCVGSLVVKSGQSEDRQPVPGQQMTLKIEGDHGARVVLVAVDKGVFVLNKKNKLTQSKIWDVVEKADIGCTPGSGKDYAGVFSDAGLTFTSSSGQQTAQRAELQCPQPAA", "T2 sequence (P01024 749-1303 limits assumed)": "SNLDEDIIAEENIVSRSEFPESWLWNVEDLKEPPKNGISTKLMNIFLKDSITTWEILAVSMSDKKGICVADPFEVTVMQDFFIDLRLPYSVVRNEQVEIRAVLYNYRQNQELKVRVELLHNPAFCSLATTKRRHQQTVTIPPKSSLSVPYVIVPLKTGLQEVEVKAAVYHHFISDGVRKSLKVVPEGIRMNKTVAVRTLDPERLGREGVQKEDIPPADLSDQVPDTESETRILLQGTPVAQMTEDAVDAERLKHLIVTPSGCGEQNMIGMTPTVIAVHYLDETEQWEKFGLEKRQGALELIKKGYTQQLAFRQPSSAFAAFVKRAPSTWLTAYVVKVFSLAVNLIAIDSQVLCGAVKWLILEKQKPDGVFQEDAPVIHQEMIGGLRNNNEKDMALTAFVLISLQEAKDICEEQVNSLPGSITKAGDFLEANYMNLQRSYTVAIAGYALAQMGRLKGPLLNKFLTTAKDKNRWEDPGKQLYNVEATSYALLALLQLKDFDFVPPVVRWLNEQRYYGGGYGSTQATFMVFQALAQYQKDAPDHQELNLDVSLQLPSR", "T2 sequence (P01024 1321-1663 limits assumed)": "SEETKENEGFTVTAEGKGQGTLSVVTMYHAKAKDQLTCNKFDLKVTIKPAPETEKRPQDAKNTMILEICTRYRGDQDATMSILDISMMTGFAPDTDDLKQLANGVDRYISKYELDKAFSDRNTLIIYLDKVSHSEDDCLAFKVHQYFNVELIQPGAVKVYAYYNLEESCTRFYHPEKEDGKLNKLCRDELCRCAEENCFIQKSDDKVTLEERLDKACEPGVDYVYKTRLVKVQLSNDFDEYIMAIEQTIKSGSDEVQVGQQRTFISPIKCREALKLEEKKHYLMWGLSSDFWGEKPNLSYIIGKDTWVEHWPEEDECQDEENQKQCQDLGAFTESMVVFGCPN", "assay": "Adhesion of αMβ2 (Mac-1) or αM I-domain transfectants to immobilized iC3b", "excerpt": "In order to assess the effect of the introduction of pairs of potentially disulfide bond-forming cysteines into the I-domain of αMβ2 on CBRM 1/5 activation-dependent epitope expression and ligand binding, plasmids encoding the wild-type or mutant αM subunits and the β2 subunit were co-transfected into 293T and K562 cells. α.β heterodimer formation was confirmed using monoclonal antibody CBRM1/32 which recognizes an epitope in the putative β-propeller domain of the αM subunit only after association with the β2 subunit, and antibody CBRM1/5 was used to detect integrin activation.\nAlternatively, isolated Mac-1 mutant I-domains were expressed on the cell surface in conjunction with an artificial signal sequence and transmembrane domain of the PDGF receptor. Adhesion was assayed in L15/FBS/MnCl2 at 37° C.\nIn a further study, the open I-domain mutants Q 163C/Q309C and D294C/Q311C were stably expressed in K562 cells, and clones expressing the same levels of receptors were selected. Adhesion assays to immobilized iC3b were performed with L15/FBS at 37° C.\nBinding of αMβ2 transfectants containing mutant I-domains to immobilized iC3b on plastic was tested in the presence and absence of DTT."}, "wild-type LFA-1": {"target": "T3, wild-type LFA-1 (Homo sapiens, UniProt P20701)", "T3 construct": "expressed in transfected cells", "T3 sequence (P20701 26-1170)": "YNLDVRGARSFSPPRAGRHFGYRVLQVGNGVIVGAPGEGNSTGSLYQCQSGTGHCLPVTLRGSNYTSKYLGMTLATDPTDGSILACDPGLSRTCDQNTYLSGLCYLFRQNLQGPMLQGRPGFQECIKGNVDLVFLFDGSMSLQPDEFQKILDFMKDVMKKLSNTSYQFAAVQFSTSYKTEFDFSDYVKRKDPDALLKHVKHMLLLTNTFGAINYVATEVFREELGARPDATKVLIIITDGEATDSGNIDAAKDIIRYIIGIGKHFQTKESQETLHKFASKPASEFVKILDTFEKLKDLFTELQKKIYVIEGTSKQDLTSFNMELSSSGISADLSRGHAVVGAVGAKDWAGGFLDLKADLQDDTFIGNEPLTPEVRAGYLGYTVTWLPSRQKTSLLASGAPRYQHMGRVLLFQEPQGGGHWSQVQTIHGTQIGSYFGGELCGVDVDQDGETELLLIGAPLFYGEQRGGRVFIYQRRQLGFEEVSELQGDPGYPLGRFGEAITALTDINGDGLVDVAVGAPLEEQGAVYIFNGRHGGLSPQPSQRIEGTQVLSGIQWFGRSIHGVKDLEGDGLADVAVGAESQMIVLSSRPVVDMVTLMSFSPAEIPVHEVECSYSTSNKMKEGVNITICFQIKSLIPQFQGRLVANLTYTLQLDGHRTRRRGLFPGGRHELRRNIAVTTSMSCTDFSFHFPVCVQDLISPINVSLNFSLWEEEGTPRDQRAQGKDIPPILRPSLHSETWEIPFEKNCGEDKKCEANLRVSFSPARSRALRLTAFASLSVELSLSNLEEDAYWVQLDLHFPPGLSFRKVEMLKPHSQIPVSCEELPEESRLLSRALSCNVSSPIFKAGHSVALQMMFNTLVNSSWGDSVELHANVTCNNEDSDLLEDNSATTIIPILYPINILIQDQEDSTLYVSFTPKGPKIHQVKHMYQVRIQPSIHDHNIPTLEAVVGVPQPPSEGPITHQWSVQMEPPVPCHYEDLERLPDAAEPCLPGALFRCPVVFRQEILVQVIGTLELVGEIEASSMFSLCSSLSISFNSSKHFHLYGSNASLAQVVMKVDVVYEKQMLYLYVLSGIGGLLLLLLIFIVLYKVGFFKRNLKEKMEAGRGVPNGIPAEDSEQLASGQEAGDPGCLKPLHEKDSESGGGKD", "T3 sequence (P05107 23-769 partner)": "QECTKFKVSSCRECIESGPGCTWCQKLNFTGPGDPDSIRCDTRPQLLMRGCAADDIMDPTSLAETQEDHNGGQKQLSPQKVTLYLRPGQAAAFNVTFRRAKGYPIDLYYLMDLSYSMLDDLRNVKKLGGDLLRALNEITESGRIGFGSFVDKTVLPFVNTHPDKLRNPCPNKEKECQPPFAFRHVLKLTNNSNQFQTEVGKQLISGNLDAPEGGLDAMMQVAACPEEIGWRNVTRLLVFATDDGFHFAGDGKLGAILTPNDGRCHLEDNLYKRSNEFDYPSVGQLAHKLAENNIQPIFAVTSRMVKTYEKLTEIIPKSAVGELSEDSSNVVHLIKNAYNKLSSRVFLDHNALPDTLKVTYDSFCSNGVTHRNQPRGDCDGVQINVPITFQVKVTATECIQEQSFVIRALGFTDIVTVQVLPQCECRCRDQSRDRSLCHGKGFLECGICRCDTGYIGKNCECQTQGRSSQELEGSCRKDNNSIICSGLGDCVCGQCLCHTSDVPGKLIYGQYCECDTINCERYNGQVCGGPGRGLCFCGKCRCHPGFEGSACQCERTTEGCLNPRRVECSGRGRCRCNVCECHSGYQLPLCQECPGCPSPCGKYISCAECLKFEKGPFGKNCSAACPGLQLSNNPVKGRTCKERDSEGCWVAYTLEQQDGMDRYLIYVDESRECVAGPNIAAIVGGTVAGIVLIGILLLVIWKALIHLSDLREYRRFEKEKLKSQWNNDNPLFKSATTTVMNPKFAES", "assay": "Inhibition of binding of wild-type LFA-1 transfectants to immobilized ICAM-1", "settings": "lovastatin 0-50 μM; cells stimulated with Mn2+ or antibody CBRLFA1/2", "protocol": "as §1, with “Cells were then resuspended to 5×10^5/ml in the TS buffer, pH7.5 supplemented with 1 mM MgCl2/CaCl2, MgCl2, MnCl2 mM EDTA, and 100 μl cell suspension was added to ICAM-1 coated wells. After incubation at 37° C. for 30 minutes, unbound cells were washed off on a Microplate Autowasher (Bio-Tek Instruments, Winooski, Vt.).” left out, “well. […]” for “well.”\n(§2) The high affinity open I-domains of the invention can be used to discriminate between direct/competitive and indirect/non-competitive modes of inhibition of LFA-1. […] Accordingly, the ability of lovastatin to inhibit ligand binding of the high-affinity I-domain (K287C/K294C) was assessed. […]"}, "LFA-1 mutant K287C/K294C": {"target": "T4, LFA-1 mutant K287C/K294C (Homo sapiens, UniProt P20701, K312C/K319C)", "T4 construct": "expressed in transfected cells", "T4 sequence (P20701 26-1170 K312C/K319C)": "as the sequence (P20701 26-1170) above, with K287C, K294C counted along it", "T4 sequence (P05107 23-769 partner)": "as the sequence (P05107 23-769 partner) above", "assay": "Inhibition of binding of mutant K287C/K294C LFA-1 transfectants to immobilized ICAM-1", "settings": "lovastatin 0-50 μM", "protocol": "as §1, with “Cells were then resuspended to 5×10^5/ml in the TS buffer, pH7.5 supplemented with 1 mM MgCl2/CaCl2, MgCl2, MnCl2 mM EDTA, and 100 μl cell suspension was added to ICAM-1 coated wells. After incubation at 37° C. for 30 minutes, unbound cells were washed off on a Microplate Autowasher (Bio-Tek Instruments, Winooski, Vt.).” left out, “well. […]” for “well.”\nas §2"}}}
{"compound": "L289C: single cysteine substitution mutant of LFA-1 αL", "values": [{"measurement": "binding of 293T transient transfectants to immobilized ICAM-1 with activating mAb CBRLFA-1/2", "setting": "ICAM-1; 293T, CBRLFA-1/2 10 μg/ml", "value": "increased"}, {"measurement": "binding of 293T transient transfectants to immobilized ICAM-1", "setting": "ICAM-1; 293T", "value": "reduced binding"}]}
{"compound": "K294C: single cysteine substitution mutant of LFA-1 αL", "values": [{"measurement": "binding of 293T transient transfectants to immobilized ICAM-1", "setting": "ICAM-1; 293T", "value": "comparable to that of the wild-type"}]}
{"compound": "wild-type LFA-1: wild-type human αL/β2 (LFA-1) expressed on 293T or K562 transfectants [reference compound]", "values": [{"measurement": "binding of 293T transient transfectants to immobilized ICAM-1", "setting": "ICAM-1; 293T", "value": "constitutively strong binding"}, {"measurement": "binding of K562 stable transfectants to immobilized ICAM-1 with activating mAb CBRLFA-1/2", "setting": "ICAM-1; K562, CBRLFA-1/2 10 μg/ml", "value": "greatly increased"}, {"measurement": "effect of Mn2+ and Mg2+ on binding of K562 transfectants to ICAM-1", "setting": "ICAM-1; K562, intact LFA-1, Mn2+ / Mg2+", "value": "greatly enhanced"}, {"measurement": "binding of K562 stable transfectants to immobilized ICAM-1", "setting": "ICAM-1; K562, no activating antibody", "value": "low basal binding"}, {"measurement": "effect of DTT treatment on binding to ICAM-1", "setting": "ICAM-1; K562 transfectants, DTT 10 mM in L15/FBS", "value": "increased binding"}]}
{"compound": "Wild type: wild-type αMβ2 (Mac-1) transfectant", "values": [{"measurement": "effect of DTT on binding of intact αMβ2", "setting": "iC3b; DTT", "value": "increased binding"}, {"measurement": "adhesion of αMβ2 transfectant to iC3b, +DTT +activation", "setting": "iC3b; DTT treatment, activated by mAb CBR LFA-1/2", "value": "++++ (++++: 75-100% of binding by activated wild type transfectant)"}, {"measurement": "adhesion of αMβ2 transfectant to iC3b, +DTT −activation", "setting": "iC3b; DTT treatment, no activating mAb", "value": "++ (++25-50%)"}, {"measurement": "ligand binding (iC3b) of intact αMβ2 heterodimer in K562 stable transfectants", "setting": "iC3b; K562, L15/FBS at 37° C.", "value": "little basal activity"}, {"measurement": "adhesion of αMβ2 transfectant to iC3b, −DTT +activation", "setting": "iC3b; no DTT, activated by mAb CBR LFA-1/2", "value": "++++ (++++: 75-100% of binding by activated wild type transfectant)"}, {"measurement": "adhesion of αMβ2 transfectant to iC3b, −DTT −activation", "setting": "iC3b; no DTT, no activating mAb", "value": "± (+−.: 0-5%)"}]}
{"compound": "CC[C@H](C)C(=O)O[C@H]1C[C@@H](C)C=C2C=C[C@H](C)[C@H](CC[C@@H]3C[C@@H](O)CC(=O)O3)[C@H]21", "note": "[lovastatin]", "values": [{"measurement": "inhibition of ICAM-1 binding by cells expressing wild-type LFA-1", "setting": "wild-type LFA-1", "value": "inhibits"}, {"measurement": "interference with ligand binding by the high affinity open K287C/K294C mutant", "setting": "LFA-1 mutant K287C/K294C", "value": "does not interfere"}]}
